The text below walks through data of publication PMC9951844 (2023).

The target in assay [1] is T1, SARS-CoV-2 wildtype RBD (SARS-CoV-2, UniProt P0DTC2 332-527). Nature of the assay: BLI. In general terms: In BLI a coated tip is dipped into the sample, and binding shifts an interference pattern.
Assay [2] has as its target T1, SARS-CoV-2 wildtype RBD. Nature of the assay: BLI. This is another data set of the same source.

B1: YB13-292 IgG (antibody, V domains shown)
VH: EVQLVESGGGLVKPGGSLRLSCAASGFSFITYNMNWVRQAPGKGLEWVSSISSNILSSTSYIYYADSVKGRFTISRDDAANSLFLQMNSLRVEDTAQYYCARTRSRSVRNCTSATCPVDAFDLWGQGTMVIVSS
VL: DIVLTQSPLSLPVTPGEPASISCRSSQSLLRSNGYNYLDWYLQKPGQSPHLLIYLGSNRASGVPDRFSGSGSGTDFTLKISRVEAEDVGVYYCMQALQTPYTFGQGTNLEIK
Molecule B1 yielded a Kd with SARS-CoV-2 wildtype RBD [1] of 0.39 nM. This molecule also had a koff with SARS-CoV-2 wildtype RBD [2] of 0.000197 s⁻¹.

B2: YB9-258 IgG (antibody, V domains shown)
VH: EVQLVESGGGLIQPGGSLRLSCAASGLTVSSNYMHWVRQAPGKGLEWVSVLYAGGSAFYADSVKGRFTISRNNSKNTLYLQMNSLRAEDTAIYYCARGLGDYLDSWGQGTLVTVSS
VL: DIQMTQSPSSVSASVGDRVTITCRASQGIGSWLAWYQQKPGKAPQLLIYAASTLQSGVPPRFSGSGSGTDFTLTITSLQPEDFASYYCQQANSVLALTFGGGTKVEIK
In the case of B2, binding with SARS-CoV-2 wildtype RBD [1] was characterised by a dissociation constant (Kd) of 0.63 nM. In the assay with SARS-CoV-2 wildtype RBD [2], the off-rate constant (koff) came to 7.7e-05 s⁻¹.

As usually defined, the Kd is a measure of binding affinity in units of concentration. A higher Kd goes with a looser complex. For orientation: koff means a measure of how fast the partners let go of each other. Read a low koff as slow dissociation.
